{
  "source": "the domain aggregation screens of Martell et al. (2025)",
  "data": [
    {"assay": "soluble fraction after stress (log2 fold change); higher = more stays soluble; pooled small domains, quantitative proteomics", "settings": "stress: 50 degC", "how_it_was_run": "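Custom libraries of small protein domains were pooled and measured in a high-throughput format, with quantitative proteomics as the read-out. Each library was stressed at 50°C. The value is the log2 fold change in the amount of each protein that stays soluble after stress, used as a measure of aggregation propensity; higher values mean more of the protein stays soluble.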", "values": [
      {"sequence": "HMYYTAPDGRKREILDAALRLIAAGGPDSLTYRRVADEAGVPLGSLTYYFEAREDLIREAFRLYIAEASR", "soluble fraction (log2)": -3.04},
      {"sequence": "HMKRQDFEFLVNLLRQNAGWDFDEEQYFVVDKKISNFIREKGYASVEDLIDELKVGAKPLISQVVESLAL", "soluble fraction (log2)": -0.622},
      {"sequence": "HMGKRPTIQMVAEMAGVSRGTVDRVLNGRSYVSAQVRQRVLAALQETGYISSREHHQQALQS", "soluble fraction (log2)": -0.0246},
      {"sequence": "HMDYYASVDQVWRELGLAGPARRALIDDGLFKLSDLRKTSLAAVKELHGMGPNAIRILTTEMKKADLSFR", "soluble fraction (log2)": -2.25},
      {"sequence": "HMEVDWLEVEKVIVSSSYSWMENSPKVKLLQEYIGVTADGIYGLGTWGAHRTHAVDLGFINLSYPIP", "soluble fraction (log2)": -0.127},
      {"sequence": "HMRYEESVTLGERLLNQSLVALKADNIDDALWERFLREEAGEKSRQEILSDIGLGKRLPVVVAKRLLAPS", "soluble fraction (log2)": 0.0281},
      {"sequence": "HMAKRMRNPNGYGSIVKLSGNRRNPYMVKVNTHMDERYYPVYDILGYYPTWADASIALAKYNDDPYNVS", "soluble fraction (log2)": -0.453},
      {"sequence": "HMIYKLIADRLKNRINSDEFEVGDALPSEKALAGELEVSVMTIRKALTLLESEKLIVKRHGSGSYVARKSN", "soluble fraction (log2)": -0.429},
      {"sequence": "HMVLAEPLSERELDILRLLAAGDSNKEIAAVLYITEGTVKNHVTNILGKLDARDRTQAALRARELGL", "soluble fraction (log2)": -0.801},
      {"sequence": "HMENTVVMPNLLGKTMTEAKIELKDLSISITLKGSENSSQYAAGQIISQSVDSGTRVAVGSSVEVTIAGS", "soluble fraction (log2)": 0.0377},
      {"sequence": "HMNQYRKLDGDVQNQIIYILSEYPKLPATIVYQRLLDTNTIVKKDVSLSTVNRFVQKYKDSKGIT", "soluble fraction (log2)": -1.05},
      {"sequence": "HMTPVTYELTVQSGAGQRIDKYLSEQLADLTRSYLQKLLKDGGVTVNGKTVKSNYKLSENDQIFLEVPDA", "soluble fraction (log2)": 0.0372},
      {"sequence": "HMTDRINIGDVVTIISKDREDSQIVYMRYHKGKLSILGELILNKTKNDTVDFKGRTYDIATIEKS", "soluble fraction (log2)": -1.83},
      {"sequence": "HMKNLHLVPNVVGMSAKEAKNTLKSFNIKYKPIYGSSNKYDENYIFNQNPRKGKTIKEQEVVTIYISRGAD", "soluble fraction (log2)": -1.07},
      {"sequence": "HMLSLDDAAFERYDLTMREREVLLLLLNRLTYEEIAERLFISTNTVKTHVGNVYKKTGVSSRKELVSK", "soluble fraction (log2)": -1.08},
      {"sequence": "HMERVIYLLNGREVPAAEIRAAEPEALTVDRFYSSENLPAEYRDRNPELVVAFTAEEPLRHY", "soluble fraction (log2)": 0.358},
      {"sequence": "HMKETKVIHVHLIFKKTSRFFGSISAIYSEFTAEEIGITEETLRHKGLSDGVSFATKKAIIQQGVLIR", "soluble fraction (log2)": -1.67},
      {"sequence": "HMEDQVITQFNMRLIRAVMPQGAPMIVVYEDPKDYPGLFVARLFDGRKSTHLIALADTLEDI", "soluble fraction (log2)": -0.123},
      {"sequence": "HMPDPLVEIRSAVHSNYAGMIAMLGADNRVYLGREEHYSYQDGQPGQYDNRDGSLLFVSDQPDIYYFL", "soluble fraction (log2)": -1.44},
      {"sequence": "HMGYPYDTVTTAKVNLRAKRSTSSDILKKIPEGATVTVKGVTGTFASVDYNGTSGYVKVDYLV", "soluble fraction (log2)": 0.069},
      {"sequence": "HMQRYVVDENLKLDKKDINHIINVMRLNVNDQIKLINNGTIYDAIITKIEKNNVLYEIIKKEESK", "soluble fraction (log2)": 0.0274},
      {"sequence": "HMEDVDTAALEKVIATAKGLNKNDYTATTWTTMQAALTNAEKALEAKKSQTSVDEAAKTLQAAIDGLKKAS", "soluble fraction (log2)": 0.215},
      {"sequence": "HMTILKEGMSGPEVERLQDALKRHGFDPGRVDGQFGPGTEAAILAFQKSEGLRADGVAGPKTQQALGLE", "soluble fraction (log2)": 0.131},
      {"sequence": "HMTPLFNQGEVLKGFVLQTGTNNRVLLQIGTAKVLADAQTPLKAGEQLTLRVEATGPRTVLQILG", "soluble fraction (log2)": 0.553},
      {"sequence": "HMEKGLQYRRTDRAIMNAFIKLVNQGSFEKLTVQEILDEALVSRNTFYAHYRDIYDLMDALSN", "soluble fraction (log2)": -1.55},
      {"sequence": "HMVSEDELLARIALLPYPQAKILLEERLSHDPANAKVRQLYLELAKKSGDHTEVTRHNSLLY", "soluble fraction (log2)": -0.104},
      {"sequence": "HMRSNQKVSQIAISQVLPGMVTAKNVYSRNDQLILNRETTLDSTKIAKIMFYAIESIYVYEPE", "soluble fraction (log2)": -1.9},
      {"sequence": "HMGAKVFTVPNLIGKYAIEAGIILKKEGLSEGEVKEENSDKYAAGQIIDQYPAADSPAKENDKINYVVSIG", "soluble fraction (log2)": 0.00836},
      {"sequence": "HMYRYYSTLRPITPGAYPKPADNPAMLIHNFDNREYVGKIGREAWGYVEYNNPLTKEQIEAFDFVAE", "soluble fraction (log2)": 0.0677},
      {"sequence": "HMNDREAAYEDLPDELVRVGQKVFIKSLETEGVIVQPPNKKGEVRVRSGNISTNVKRSDLGLPIEKP", "soluble fraction (log2)": 0.129},
      {"sequence": "HMHRNLSFEEEKEFLSAYTKQAEAGQIVDLNEMKAAYIEKVGHSIGGSQIYRMLERHGWRKVM", "soluble fraction (log2)": -0.312},
      {"sequence": "HMSQPALSYAFAKAQGVIVTALGDVAEVARRKGSQPQALAEVRRIAGRPLALREVDDAAFDRLLQDHYARS", "soluble fraction (log2)": -0.243},
      {"sequence": "HMLDLYYDSEDKLLIDMGTGEVIRSFADDKRSLVFDAQAKILFDEDSGDIVYSSYFDKLITDKLASKS", "soluble fraction (log2)": -0.0393},
      {"sequence": "HMHDWDITTAAKPEKIFELFSDIPVLETGLKHGTVTLLIDHEPYEVTTFRVDGNYTDGRHPDSVAFT", "soluble fraction (log2)": -0.0484},
      {"sequence": "HMDRRFFVAEENYKRLDVFLSERMEEFTRSRIKKLIDEGHVELNGKSAKAGAEIRPGDEVAAEIPEVKE", "soluble fraction (log2)": 0.147},
      {"sequence": "HMQEERLTFDTLLGISGIGPRLALAVLSRFTPGSLAAAVDAGDTKAFSAVPGVGNRTASRIILELKGKL", "soluble fraction (log2)": -0.771},
      {"sequence": "HMLQEFTLELATAVVQEFRDQPGALINALHKLQETFGYVDEAAMPVLARLFNLSRAEVHGVASFYHDFRRS", "soluble fraction (log2)": -1.49},
      {"sequence": "HMDAMMQRLERLKELASSADGSKDYLILGPLRRDLAKLMALEDPKLRQGAEELDRKILAILS", "soluble fraction (log2)": -0.208}
    ]}
  ]
}
